The data set can be described thus: self-splicing fitness, log relative to wild type (ln ratio); higher = more splicing; Tetrahymena group I intron in knt gene, E. coli kanamycin selection, DiMSum; sequences stand for … in CUCUCU…GGAGGGAAAAGUUAUCAGGCAUGCACCUGGUAGCUAGUCUUUAAACCAAUAGAUUGCAUCGGUUUAAAAGGCAAGACCGUCAAAUUGCGGGAAAGGGGUCAACAGCCGUUCAGUACCAAGUCUCAGGGGAAACUUUGAGAUGGCCUUGCAAAGGGUAUGGUAAUAAGCUGACGGACAUGGUCCUAACCACGCAGCCAAGUCCUAAGUCAACAGAUCUUCUGUUGAUAUGGAUGCAGUUCACAGACUAAAUGUCGGUCGGGGAAGAUGUAUUCUUCUCAUAAGAUAUAGUCGGACCUCUCCUUAAUGGGAGCUAGCGGAUGAAGUGAUGCAACACUGGAGCCGCUGGGAACUAAUUUGUAUGCGAAAGUAUAUUGAUUAGUUUUGGAGUACUCGUGGUCG
The method, boiled down:
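A randomised library covering all eight P1ex-region intron nucleotides was built with the intron in the knt kanamycin-resistance gene on pET-22b(+) and held in E. coli BL21(DE3). Cells were grown overnight at 37°C or 30°C on LB agar, with or without 25 μg/mL kanamycin, plus 100 μg/mL carbenicillin, 50 μM IPTG and 0.2% rhamnose, and pooled colonies were amplicon-sequenced on an Illumina HiSeq 2500. DiMSum fitness is the error-weighted combination of wild-type-normalised replicate fold changes, kanamycin versus none.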

± gives the uncertainty stated by the source.

The record followed here is the supplement of paper PMC7877785.

With CGAAAGCAAUAUUACGAGAG, the “self-splicing fitness (ln)” value runs as follows: (30 °C) -3.12 ± 0.17; (37 °C) -2.58 ± 0.18.
For the sequence AGCUAGCAAUAUUACGAGCA, the “self-splicing fitness (ln)” value reads like this: (30 °C) -1.16 ± 0.21; (37 °C) 0.177 ± 0.17.
CCUUAGCAAUAUUACGAUAA: the “self-splicing fitness (ln)” value (30 °C) was -3.53 ± 0.25 and the “self-splicing fitness (ln)” value (37 °C) was -2.88 ± 0.27.
The matching figures for CUACAGCAAUAUUACGUAUC: -2.78 ± 0.19 and -3.07 ± 0.24.
The matching figures for UAAAAGCAAUAUUACGUCUA: -0.487 ± 0.068 and 0.337 ± 0.097.
As for AACGAGCAAUAUUACGUGAA, the “self-splicing fitness (ln)” value is -3.48 ± 0.19 (30 °C) and -3.65 ± 0.24 (37 °C).
Turning to AAGAAGCAAUAUUACGUGCG, the “self-splicing fitness (ln)” value is -0.93 ± 0.079 (30 °C) and -0.0711 ± 0.1 (37 °C).
The matching figures for GGUUAGCAAUAUUACGGCGG: -2.05 ± 0.15 and -1.68 ± 0.16.
In the case of CGAGAGCAAUAUUACGUGCC, the “self-splicing fitness (ln)” value (37 °C) is -2.05 ± 0.38.
For GUUUAGCAAUAUUACGGAAA, the “self-splicing fitness (ln)” value was -2.38 ± 0.37 (30 °C) and -2.07 ± 0.28 (37 °C).
The matching figures for GAAAAGCAAUAUUACGUCGG: -4.39 ± 0.32 and -2.89 ± 0.24.
The matching figures for CAAUAGCAAUAUUACGUAUG: -1.66 ± 0.12 and -1.7 ± 0.12.
For CCUGAGCAAUAUUACGUUUU, in that order: -3.74 ± 0.23 and -2.81 ± 0.25.
Consider GGGUAGCAAUAUUACGUUAG, for which the “self-splicing fitness (ln)” value (37 °C) was -1.78 ± 0.43.
In the case of CAAUAGCAAUAUUACGCCGG, the “self-splicing fitness (ln)” value (30 °C) amounted to 0.0303 ± 0.12 and the “self-splicing fitness (ln)” value (37 °C) came to 0.077 ± 0.15.
In the case of UUUAAGCAAUAUUACGUGGU, the “self-splicing fitness (ln)” value is, setting by setting: (30 °C) -2.88 ± 0.16; (37 °C) -2.62 ± 0.21.
For AAGUAGCAAUAUUACGUACC, in that order: -0.997 ± 0.16 and -0.0515 ± 0.15.
For the sequence AAUCAGCAAUAUUACGCUAA, the “self-splicing fitness (ln)” value was -0.408 ± 0.089 (30 °C) and 0.12 ± 0.092 (37 °C).
With GGACAGCAAUAUUACGUGAC, the “self-splicing fitness (ln)” value is -1.07 ± 0.081 (30 °C) and -1.23 ± 0.13 (37 °C).
For GAUAAGCAAUAUUACGCGUU, in that order: -2.05 ± 0.14 and -2.95 ± 0.32.
For AAAUAGCAAUAUUACGUUGU, in that order: -4.44 ± 0.29 and -1.02 ± 0.12.
AUCAAGCAAUAUUACGGCUA: the “self-splicing fitness (ln)” value reads like this: (30 °C) -0.209 ± 0.097; (37 °C) 0.184 ± 0.11.
AACUAGCAAUAUUACGAGAG: the “self-splicing fitness (ln)” value runs as follows: (30 °C) -3.61 ± 0.12; (37 °C) -1.84 ± 0.11.
With CGUGAGCAAUAUUACGUACA, the “self-splicing fitness (ln)” value was -1.46 ± 0.053 (30 °C) and -0.707 ± 0.059 (37 °C).
Consider UAGGAGCAAUAUUACGUGAU, for which the “self-splicing fitness (ln)” value (30 °C) was -3.75 ± 0.35 and the “self-splicing fitness (ln)” value (37 °C) was -1.44 ± 0.3.
For the sequence ACAAAGCAAUAUUACGCUCC, the “self-splicing fitness (ln)” value was -1.29 ± 0.16 (30 °C) and -0.526 ± 0.17 (37 °C).
Turning to ACGGAGCAAUAUUACGGAUC, the “self-splicing fitness (ln)” value is -3.09 ± 0.17 (30 °C) and -2.79 ± 0.26 (37 °C).
As for AGCUAGCAAUAUUACGCUUU, the “self-splicing fitness (ln)” value was -3.48 ± 0.25 (30 °C) and -2.57 ± 0.23 (37 °C).
For CAUAAGCAAUAUUACGCCGG, in that order: -0.252 ± 0.13 and -0.546 ± 0.2.
The matching figures for CACAAGCAAUAUUACGGAAC: -4.35 ± 0.24 and -3.71 ± 0.25.
The matching figures for GGACAGCAAUAUUACGUGUG: -1.55 ± 0.05 and -0.79 ± 0.066.
For UCCUAGCAAUAUUACGAGUA, the “self-splicing fitness (ln)” value by setting is: (30 °C) -1.12 ± 0.14; (37 °C) -0.911 ± 0.13.
The matching figures for CGUGAGCAAUAUUACGUGUG: -1.39 ± 0.1 and -0.501 ± 0.1.
Consider GCGCAGCAAUAUUACGGUAU, for which the “self-splicing fitness (ln)” value reads like this: (30 °C) -0.825 ± 0.039; (37 °C) -0.0516 ± 0.054.
As for GUCUAGCAAUAUUACGUUAG, the “self-splicing fitness (ln)” value is -2.42 ± 0.16 (30 °C) and -2.28 ± 0.21 (37 °C).
Regarding GACUAGCAAUAUUACGUUUG, the “self-splicing fitness (ln)” value runs as follows: (30 °C) -2.63 ± 0.13; (37 °C) -2.46 ± 0.2.
The matching figures for AUUUAGCAAUAUUACGUUGA: -1.32 ± 0.2 and -2.27 ± 0.26.
The matching figures for UAUAAGCAAUAUUACGGAGG: -2.6 ± 0.28 and -1.67 ± 0.19.
The matching figures for CGGCAGCAAUAUUACGCCAC: -2.97 ± 0.23 and -1.52 ± 0.3.
In the case of GGAUAGCAAUAUUACGUGCU, the “self-splicing fitness (ln)” value was -1.26 ± 0.085 (30 °C) and -1.21 ± 0.12 (37 °C).
For the sequence GCUAAGCAAUAUUACGGUAC, the “self-splicing fitness (ln)” value is, setting by setting: (30 °C) -1.47 ± 0.1; (37 °C) -1.65 ± 0.2.
For GUGCAGCAAUAUUACGCAGC, in that order: -3.21 ± 0.34 and -1.3 ± 0.34.
The matching figures for CUAAAGCAAUAUUACGGACG: 0.255 ± 0.084 and -0.189 ± 0.092.
For GAACAGCAAUAUUACGUAAU, in that order: -0.976 ± 0.065 and -0.107 ± 0.09.
Regarding UAUGAGCAAUAUUACGUUCU, the “self-splicing fitness (ln)” value is, setting by setting: (30 °C) -3.57 ± 0.29; (37 °C) -2.67 ± 0.34.
The matching figures for GAUCAGCAAUAUUACGGGUU: -3.12 ± 0.26 and -2.88 ± 0.38.
With UCUCAGCAAUAUUACGAGAA, the “self-splicing fitness (ln)” value is -2.45 ± 0.29 (30 °C) and -0.803 ± 0.2 (37 °C).
Turning to AUUGAGCAAUAUUACGUGGA, the “self-splicing fitness (ln)” value is -2.87 ± 0.26 (30 °C) and -1.61 ± 0.21 (37 °C).
Consider CGUGAGCAAUAUUACGGUCG, for which the “self-splicing fitness (ln)” value (30 °C) is -1.17 ± 0.083 and the “self-splicing fitness (ln)” value (37 °C) is -0.688 ± 0.13.
Turning to CCUGAGCAAUAUUACGAAUG, the “self-splicing fitness (ln)” value by setting is: (30 °C) -2.21 ± 0.18; (37 °C) -1.7 ± 0.19.
In the case of AAAGAGCAAUAUUACGAUCC, the “self-splicing fitness (ln)” value (37 °C) was -1.6 ± 0.32.
GGUGAGCAAUAUUACGUGGA: the “self-splicing fitness (ln)” value is, setting by setting: (30 °C) -2.86 ± 0.36; (37 °C) -3.3 ± 0.28.
For UGUGAGCAAUAUUACGGCAC, in that order: -3.21 ± 0.23 and -2.21 ± 0.23.
The matching figures for UGCUAGCAAUAUUACGCUAC: -2.72 ± 0.48 and -2.32 ± 0.47.
On to GCGGAGCAAUAUUACGUGUA, for which the “self-splicing fitness (ln)” value (30 °C) was -3.49 ± 0.37 and the “self-splicing fitness (ln)” value (37 °C) was -2.58 ± 0.38.
UCUGAGCAAUAUUACGUACU: the “self-splicing fitness (ln)” value (30 °C) is -2.66 ± 0.34 and the “self-splicing fitness (ln)” value (37 °C) is -2.72 ± 0.48.
For GUUGAGCAAUAUUACGGGUG, in that order: -3.62 ± 0.38 and -2.85 ± 0.47.
For GAAAAGCAAUAUUACGGUAA, in that order: -1.98 ± 0.12 and -1.18 ± 0.12.
CGCGAGCAAUAUUACGAGAU: the “self-splicing fitness (ln)” value is, setting by setting: (30 °C) -2.7 ± 0.28; (37 °C) -2.19 ± 0.26.
For UUAAAGCAAUAUUACGUUUU, in that order: -3.84 ± 0.2 and -2.27 ± 0.18.
Turning to GAGGAGCAAUAUUACGAAAG, for the setting “37 °C”, the “self-splicing fitness (ln)” value was -2.01 ± 0.33.
On to CCACAGCAAUAUUACGGAGC, for which the “self-splicing fitness (ln)” value was -3.58 ± 0.14 (30 °C) and -2.99 ± 0.19 (37 °C).
In the case of GAUCAGCAAUAUUACGUGGA, the “self-splicing fitness (ln)” value (30 °C) was -2.82 ± 0.26 and the “self-splicing fitness (ln)” value (37 °C) was -1.22 ± 0.13.
In the case of GUUCAGCAAUAUUACGCCGG, the “self-splicing fitness (ln)” value reads like this: (30 °C) -2.55 ± 0.21; (37 °C) -0.806 ± 0.28.
For GUAUAGCAAUAUUACGAUGU, in that order: -1.07 ± 0.12 and -0.00633 ± 0.17.
As for ACCAAGCAAUAUUACGAAGG, the “self-splicing fitness (ln)” value was -2.34 ± 0.12 (30 °C) and -1.09 ± 0.14 (37 °C).
In the case of GGCUAGCAAUAUUACGGCCA, the “self-splicing fitness (ln)” value runs as follows: (30 °C) -1.53 ± 0.21; (37 °C) -0.776 ± 0.26.
As for GCCAAGCAAUAUUACGACCC, the “self-splicing fitness (ln)” value (30 °C) was -0.14 ± 0.14 and the “self-splicing fitness (ln)” value (37 °C) is -0.813 ± 0.17.
For GAGAAGCAAUAUUACGCUCU, in that order: -3.26 ± 0.35 and -2.25 ± 0.44.
The matching figures for CCGAAGCAAUAUUACGAUCA: -2.35 ± 0.13 and -0.736 ± 0.14.
On to UGUGAGCAAUAUUACGAAAU, for which the “self-splicing fitness (ln)” value reads like this: (30 °C) -3.01 ± 0.18; (37 °C) -3.22 ± 0.35.
As for CAGAAGCAAUAUUACGAAAU, the “self-splicing fitness (ln)” value by setting is: (30 °C) -3.92 ± 0.42; (37 °C) -1.33 ± 0.38.
As to GGGUAGCAAUAUUACGUAUC, the “self-splicing fitness (ln)” value is, setting by setting: (30 °C) -1.3 ± 0.21; (37 °C) -0.963 ± 0.24.
For ACCAAGCAAUAUUACGUAAU, in that order: -2.74 ± 0.098 and -0.681 ± 0.078.
The matching figures for GUCUAGCAAUAUUACGAGGG: -3.1 ± 0.11 and -1.57 ± 0.09.
The matching figures for UCACAGCAAUAUUACGCCGC: -3.57 ± 0.22 and -2.69 ± 0.19.
